Reference: patent US20060172935A1 (published 2006)
One block for each molecule: values may come before it.

What was measured:
[1] = target: PKR2 stably expressed in Chinese Hamster Ovary cells (CHO-PKR2); assay: cell-based or functional assay
mouse PK2 receptor = target: T1, mouse PK2 receptor (mouse, UniProt Q8K458 1-381); assay: PK2 receptor binding assay with radioiodinated ligand (FIG. 11)
T1 construct: G-protein coupled receptor; also called PKR2; mouse PKR2
From the text: An exemplary assay for determining binding of detectably labeled PK2, PK1 or PK2/PK1 chimera to PK2 receptor or PK1 receptor is the radioligand filter binding assay described in Li et al. Molecular Pharmacology 59:692-698 (2001)). […] A variety of other low- and high-throughput assays suitable for detecting selective binding interactions between a receptor and a ligand are known in the art. Such assays include, for example, fluorescence correlation spectroscopy (FCS) and scintillation proximity assays (SPA) reviewed in Major, J. Receptor and Signal Transduction Res. 15:595-607 (1995); and in Sterrer et al., J. Receptor and Signal Transduction Res. 17:511-520 (1997)). Binding assays can be performed in any suitable assay format including, for example, cell preparations such as whole cells or membranes that contain PK2 receptor or PK1 receptor, or substantially purified PK2 receptor polypeptide or PK1 receptor, either in solution or bound to a solid support.

T1 sequence (Q8K458 whole entry): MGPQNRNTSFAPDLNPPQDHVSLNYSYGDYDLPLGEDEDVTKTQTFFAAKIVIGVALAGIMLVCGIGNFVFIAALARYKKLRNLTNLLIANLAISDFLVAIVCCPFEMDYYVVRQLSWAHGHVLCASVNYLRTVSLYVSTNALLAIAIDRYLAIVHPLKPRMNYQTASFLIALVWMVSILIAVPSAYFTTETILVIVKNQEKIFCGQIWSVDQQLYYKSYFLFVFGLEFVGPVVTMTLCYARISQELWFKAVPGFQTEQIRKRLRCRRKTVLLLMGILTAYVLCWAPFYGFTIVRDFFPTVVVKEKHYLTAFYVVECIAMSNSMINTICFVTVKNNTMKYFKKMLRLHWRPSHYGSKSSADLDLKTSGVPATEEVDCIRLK

EC50, calcium mobilization [1]: 7.3 nM
fold stimulation of CLOCK:BMAL1-mediated transcription of the 2.8 kb PK2 promoter (luciferase) [1]: 4 fold
Molecule: purified recombinant mouse PK2 (from UniProt Q9QXU7 27-128) (ligand)

Kd (mouse PK2 receptor): ~1 nM
B1: 125I-human PK2 (iodinated human prokineticin 2) (ligand)
chain: AVITGACDKDSQCGGGMCCAVSIWVKSIRICTPMGKLGDSCHPLTRKVPFFGRRMHHTCPCLPGLACLRTSFNRFICLAQK
modifications: radioiodinated with 125I (residue not stated for this assay)
notes: also called iodinated PK2
